# Laboratory results reported in the DeepSol protein solubility set.
# Assay: soluble on expression in E. coli; label from the status in PepcDB or PDB records
row,Sequence,soluble on expression in E. coli
1,MKNTFVYQAEKPVIKLLQITDPHLFKDESAELLGVNTQASFAQVLKEIQQENNEFDVILATGDLVQDSSDEGYIRFVEMMKPFNKPVFWIPGNHDFQPKMAEFLNQPPMNAAKHLLLGEHWQALLLDSQVYGVPHGQLSQHQLDLLKETLGKNPERYTLVVLHHHLLPTNSAWLDQHNLRNSHELAEVLAPFTNVKAILYGHIHQEVNSEWNGYQVMATPATCIQFKPDCQYFSLDTLQPGWREIELHSDGSIRTEVKRIQQAEFFPNMQEEGY,not soluble
2,NLHLLEYLHILPLDKIGIPKFAPKLDRKKHGDLDRPNLIYPADEQIYIHVYPDKNDMRNFYIPIEPTLLTGVDELLKEVEIRLVDYITDIDF,not soluble
3,MKIATYNVRVDTEYDQDWQWSFRKEAVCQLINFHDWSLCCIQEVRPNQVRDLKAYTTFTCLSAEREGDGQGEGLAILYNEQKVQAIDTGYFWLSETPQQPSIHPEAGCPRIALWGLFKETTQNTPFLVINVHLDHISAHARLAGMTVILEELHDKIAQYPTLLMGDFNAESGEEVHQLVQKKFQDSKNLATHYGPRGTFQNFTYTKPWAELEEIDYIYVKGWQVQQTASLTDSIDGRFPSDHFPLEAEVAGENLYFQ,soluble
4,MGHHHHHHSHMPKNQEDSEEKGEKDEQTAKFLHKLAENGKDRGLPDCVVAQYEKNAWEATNSDEKYKSCEKCGMPPPPPIDGAKNSVVEEVCKNCETINEKPIGIESQILEKRRNEEILKRKEERKSLKRSAEESVTNSAPEKIQKKVHVKIMPRKCAPQILRRSLVPPPILTPKSAKKKLKLAENKEPDFLKALLNVTGNPV,not soluble
5,MVDKNSLRKLMLLKRAELNDLEKSHLDQKINQKLMAFLITRPTIKNLALYIPIKNEVAFLDNFLDFLKLNKITSCFPSIVDQFNMKFIDQNNNEINPNDIDCFFIPLLAFNKANHRIGFGKGYYDRYLSLTSKKQLKIGIAYDFQYAEFTNDPWDYQLDLIICNGMAGDPLEHHHHHH,soluble
6,MAHHHHHHMPSSSKKQNVVTFSEVHDPLYGMLSPLSPSPLVVRHVQYPSLHHYFLCERFKGSPAEQWMAEATTVWSLERLVKTAEEEGYQRHNWNKVKVDVMLLGTYFKFKQNEAARAVLLSTQPSLLLYHTPTDDFWGDGGDGKGKNVLGVVSMAVRARLHSEEERQKQRPPASGRHSKSAAAKSPALPATRT,soluble
7,MKDNEIISLFELRDEHAIEALSDKYHPYCYKIAWNLLTNKEDSEECLNDTWFSVWSLIPPKKPSVLSHFCGRITRNLSIDRLRKKYADRRPDLHMADVLGEMDHLSVTYTIEDQLAEKELLEIINDFLGKMNAEDRDIFVRRYWFFDSIAAIAKRHAMSVGSVKMNLYRSRKKLLKVLKKEGKHL,not soluble
8,MRKIIVGAFVSLDGIMQAPGGPHEDPVGGFDHGGWAAPYFDETMGQAVDEMFSKPFDLLLGRKTYDIFAAHWPYAGPDDPIGPLFDRITKYVATRNPDLRLDWQNSRTLGSDPVAMLKKLKSEEGPDLLTQGSTDFLQTLFSNDLVDEMYISYFPVVLGKGKRLFGHGAMPMAMKLLGSKVSGTGVTANKYVRSGPVVTGSFEFEQPTEAELERRRKLS,soluble
9,MSLQKTSFALLVAALQLASASALAATPPVADAIWFNGPIITIDDQHPKAQAVAVKDGKILAVGDRQHVLKNKGPATQMLDLKGATLLPGFVDPHGHVSMVGFQAASANLLPPPDGTNNSIPGLQETLRRFEQQSPIPKQFGVLFGFGYDDSQLQEQRHPTKADLDAVTRDLPIAIVHQSSHLGVLNSKALELAGIDASTPNPEGGVIRRVDGSQEPNGVLEENAFFNALIRIFPKLTADQAVDMLSAGQKLYVSYGYTTIQDGRSSPDQVKTAIKAAGDGKLLADIVSYPDILTPGVKQLMVAPWYHPSNQPVVYNQHFRIGGVKLTLDGSPQGKTAWLSQPYFKPPQGQDASYAGYGVVKDADALAIYKEALANRWQILSHTNGDRAIDQLLGSMRAAEQAYPGVDVRPVMIHGQTLRKDQVAELKQLKIFPSLFPMHTYYWGDWHRQSVLGPERAENISPTQWVLQAGMKFTTHHDAPVALPDSMRVLAATVNRTTRSGYVLGPDQRVTPLQALKAMTLWSAYQHFEEDRKGSITPGKLADFAVLSANPLTVKPETLSEIQVLKTVKEGRVIYERPAKVASEGHHHHHH,soluble
10,MIERLLEIKKIRADRADKAVQRQEYRVANVAAELQKAERSVADYHVWRQEEEERRFAKAKQQTVLLKELETLRQEIALLREREAELKQRVAEVKVTLEQERTLLKQKQQEALQAHKTKEKFVQLQQQEIAEQSRQQQYQEELEQEEFRTVDIIAAALEHHHHHH,soluble
11,MSLFLNRLSLPKDYFIDTFLYYSDQDIAQISSYLPESNVSANVPGFKKNFVLKVFDHKIKPGETLSHVAARYQITSETLISFNEIKDVRNIKPNSVIKVPNMKGIVYIVKKNDSISSIASAYNVPKVDILDSNNLDNEVLFLGQKLFIPGGRLPKDFLKEVLGETFIYPVQGVITSGYGYRPDPFTGVISFHNGIDIANLANTPIKASREGVVVTAGFNAGGYGKYIVISHSNGFQTLYAHLNSFAVKVGKKVSRGAVIGYMGSTGYSTGNHLHFTIFKNGKTENPMKYEGHHHHHH,not soluble
12,MKLITAIVQDKDASSVANALVEHNIRATRLASAGGFLRSGNSTFLIAVKDDEVNTTIGVIKEHSKTRKQFVTPPVGLDMSIDTIGQPIEVEIGGATIIVQAIEDFQHF,not soluble
13,MGSDKIHHHHHHMQLKNVQRSYALTLGEKTGSTINVGVFAQKRAKKCTQAPLSIILELSRNKERIGAACTMNFTMDLPGLKGVKVTKMEEREDFIALHVEMPRTPHRCPSCGERTERIHDYRIQKVQHLKLFERWVYLFYRKRRYACRCGKRFAEKACFVERYQRQTVEWNQAFRLRLIQGKNFTDTANQFQTSVTTAMRRFDQLAAPLVKKVDHLPPRIAIDDYKGDTNAGKYQVIIADADTRKPLDILPDRKADTLKRYLQEKGHHVKTVVMDLSYTFKSAVQKALGHPLIIGDPFHFCRYIYWALEGVRRRVQKAFHPYHRKRCKRIKHLFQKEREGLDDKQKKKVERYLELSPDLREAYELKEHFRQWYQEAKMQGREGRMSEVKQGLYAFYRRVEASPLKEFHRAIQTLKNWQTEILNSFAFGLNNGFIEGLNNQTKVIKRNAFGFRRYDRLRNRILLHHQFKHQTFGVG,not soluble
14,MELRIFFDGNCPLCSAEMRQLKARDPDDHIELVDLNAENFSSRFSYIDKDYANTILHGETASGQVLLGLDVTCKAWALTGTRPWIQVLRLPLIKPLADWCYLRFAKHRYRISYLLTGKARCDSQCQLPKLEHHHHHH,soluble
15,MGSDKIHHHHHHMMEEYLGVFVDETKEYLQNLNDTLLELEKNPEDMELINEAFRALHTLKGMAGTMGFSSMAKLCHTLENILDKARNSEIKITSDLLDKIFAGVDMITRMVDKIVSEGSDDIGENIDVFSDTIKSFASSGKEKPSEIKNETETKGEEEHKGESTSNEEVVVLPEEVAHVLQEARNKGFKTFYIKVILKEGTQLKSARIYLVFHKLEELKCEVVRTIPSVEEIEEEKFENEVELFVISPVDLEKLSEALSSIADIERVIIKEVTAVTEESGAEKRTEKEEKTEKTEEKAERKKVISQTVRVDIEKLDNLMDLMGELVIARSRILETLKKYNIKELDESLSHLSRITLDLQNVVMKIRMVPISFVFNRFPRMVRDLAKKMNKEVNFIMRGEDTELDRTFVEEIGEPLLHLLRNAIDHGIEPKEERIAKGKPPIGTLILSARHEGNNVVIEVEDDGRGIDKEKIIRKAIEKGLIDESKAATLSDQEILNFLFVPGFSTKEKVSEVSGRGVGMDVVKNVVESLNGSISIESEKDKGTKVTIRLPLTLAIIQALLVKVNNLVYAIPIANIDTILSISKEDIQRVQDRDVIVIRGEVIPVYRLWEVLQIEHKEELEEMEAVIVRVGNRKYGIVVDDLLGQDDIVIKSLGKVFSEVKEFSGAAILGDGSIALIINVSGIV,not soluble
16,MSKFLDRFRYFKQKGETFADGHGQLLNTNRDWEDGYRQRWQHDKIVRSTHGVNCTGSCSWKIYVKNGLVTWETQQTDYPRTRPDLPNHEPRGCPRGASYSWYLYSANRLKYPMMRKRLMKMWREAKALHSDPVEAWASIIEDADKAKSFKQARGRGGFVRSSWQEVNELIAASNVYTIKNYGPDRVAGFSPIPAMSMVSYASGARYLSLIGGTCLSFYDWYCDLPPASPQTWGEQTDVPESADWYNSSYIIAWGSNVPQTRTPDAHFFTEVRYKGTKTVAVTPDYAEIAKLCDLWLAPKQGTDAAMALAMGHVMLREFHLDNPSQYFTDYVRRYTDMPMLVMLEERDGYYAAGRMLRAADLVDALGQENNPEWKTVAFNTNGEMVAPNGSIGFRWGEKGKWNLEQRDGKTGEETELQLSLLGSQDEIAEVGFPYFGGDGTEHFNKVELENVLLHKLPVKRLQLADGSTALVTTVYDLTLANYGLERGLNDVNCATSYDDVKAYTPAWAEQITGVSRSQIIRIAREFADNADKTHGRSMIIVGAGLNHWYHLDMNYRGLINMLIFCGCVGQSGGGWAHYVGQEKLRPQTGWQPLAFALDWQRPARHMNSTSYFYNHSSQWRYETVTAEELLSPMADKSRYTGHLIDFNVRAERMGWLPSAPQLGTNPLTIAGEAEKAGMNPVDYTVKSLKEGSIRFAAEQPENGKNHPRNLFIWRSNLLGSSGKGHEFMLKYLLGTEHGIQGKDLGQQGGVKPEEVDWQDNGLEGKLDLVVTLDFRLSSTCLYSDIILPTATWYEKDDMNTSDMHPFIHPLSAAVDPAWEAKSDWEIYKAIAKKFSEVCVGHLGKETDIVTLPIQHDSAAELAQPLDVKDWKKGECDLIPGKTAPHIMVVERDYPATYERFTSIGPLMEKIGNGGKGIAWNTQSEMDLLRKLNYTKAEGPAKGQPMLNTAIDAAEMILTLAPETNGQVAVKAWAALSEFTGRDHTHLALNKEDEKIRFRDIQAQPRKIISSPTWSGLEDEHVSYNAGYTNVHELIPWRTLSGRQQLYQDHQWMRDFGESLLVYRPPIDTRSVKEVIGQKSNGNQEKALNFLTPHQKWGIHSTYSDNLLMLTLGRGGPVVWLSEADAKDLGIADNDWIEVFNSNGALTARAVVSQRVPAGMTMMYHAQERIVNLPGSEITQQRGGIHNSVTRITPKPTHMIGGYAHLAYGFNYYGTVGSNRDEFVVVRKMKNIDWLDGEGNDQVQESVK,soluble
17,MAHHHHHHMRHSTYVEVCLRNIAYNVECIRRIAGKAELIPMVKGNAYGHGMGKVSEYLHNVCGVHTFGVASLGEALELIESQPSIAEKAQNEIFVFSDTEVLNEGCQSYYQPCGRWAVRLTPILGTLPQLKAFCASNAFNNTKLCLKLETGMNRLGLRFDELEEAVPILKQRGGVDLLLQHFGIAGSVERLAETLNHYEAFKNAKKFLHDSGVEVRATSVSNSGAVEQRIGLEETYIRPGIMLYGPRSVTSKNLWNGKFASCFYTKVLHHFPLRKGEGVGYDLTPVKADSVIVMLPIGYADGFLCTYKGMPIKVTPEDAAEPIIGTVHGRINMDMAAVVVYPEEVGKNIGNIMAAVKKESRIHVWGDDIEEKAVSVGAIPHQLTCGLSIRVPRIYM,not soluble
18,MRYTGYMMEVRQLRHFVTVAEWESFTLAAQQLHIAQPALSISIKKFEQQLGVTLFKRDERKVALTHEGEVLLEHAKRILQQVNDAQLAVDELKGVVKGEVRLGAPSMMGSYFFPQIIMAFKSHFPNLKMTVIEAGTQSIRRMLLSGELDIGVILNHDLPDDLAADPLLSSQMVAVVGKNHELAERRHLTFAEFFEHELVMFKPGYFHRDFIDKVCREHKFTADFSFETNLLPMILSIVKHEYAITALLELVTSNEPEVKAIPFEPPVWLDLALAWRKEGYLSNADRTFIEFVKKYV,not soluble
19,SYLPAENHEYVAAKEGVMNIQTNQVMKVIFQLPDYLLNRYTQGVNVSAKMIFDAFPERSFDLTFQEIDTEADPKTGSYKVTMVMERPPELGILPGMSGNAYLVSQNSGATKIPDSALFEENGKTYVWRVDDQGVVAKADITMNDNGQILQGLADGDQIIISGINVIEPGIKVRAWVKERGL,not soluble
